According to doi:10.1101/2023.07.20.549453 (bioRxiv, 2023):

T1: Human Numb full-length (human, UniProt P49757 1-651)
T1 sequence (looked up): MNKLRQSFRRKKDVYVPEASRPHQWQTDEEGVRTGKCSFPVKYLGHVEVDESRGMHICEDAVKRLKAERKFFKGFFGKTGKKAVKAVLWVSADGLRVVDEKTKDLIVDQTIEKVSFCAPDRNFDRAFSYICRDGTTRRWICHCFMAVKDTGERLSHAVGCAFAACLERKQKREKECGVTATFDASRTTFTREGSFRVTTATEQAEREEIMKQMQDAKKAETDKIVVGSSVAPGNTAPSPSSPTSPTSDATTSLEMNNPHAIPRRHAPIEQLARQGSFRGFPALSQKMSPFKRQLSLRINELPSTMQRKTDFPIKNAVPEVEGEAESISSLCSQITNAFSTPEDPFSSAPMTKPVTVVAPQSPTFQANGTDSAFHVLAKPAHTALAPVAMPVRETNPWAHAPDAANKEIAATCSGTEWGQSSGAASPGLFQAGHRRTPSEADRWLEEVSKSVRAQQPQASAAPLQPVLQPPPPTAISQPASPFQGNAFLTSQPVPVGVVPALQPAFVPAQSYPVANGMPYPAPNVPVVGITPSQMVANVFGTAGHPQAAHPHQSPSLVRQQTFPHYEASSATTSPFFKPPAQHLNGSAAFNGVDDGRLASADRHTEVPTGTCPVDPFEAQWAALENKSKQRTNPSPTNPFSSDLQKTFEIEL

B1: Human Notch1 intracellular domain (NICD) (residues 2280-2550) (domain or fragment, UniProt P46531 2280-2550, looked up)
chain: SGTSTVLGSSSGGALNFTVGGSTSLNGQCEWLSRLQSGMVPNQYNPLRGSVAPGPLSTQAPSLQHGMVGPLHSSLAASALSQMMSYQGLPSTRLATQPHLVQTQQVQPQNLQMQQQNLQPANIQQQQSLQPPPPPPQPHLGVSSAASGHLGRSFLSGEPSQADVQPLGPSSLAVHTILPQESPALPTSLPSSLVPPVTAAQFLTPPSQHSYSSPVDNTPSHQLQVPEHPFLTPSPESPDQWSSSSPHSNVSDWSEGVSSPPTSMQSQIARI
B2: Human Dlk2 extracellular domain (Dlk2EC, residues 1-306) (domain or fragment, UniProt Q6UY11 27-306, looked up)
chain: DDCSSHCDLAHGCCAPDGSCRCDPGWEGLHCERCVRMPGCQHGTCHQPWQCICHSGWAGKFCDKDEHICTTQSPCQNGGQCMYDGGGEYHCVCLPGFHGRDCERKAGPCEQAGSPCRNGGQCQDDQGFALNFTCRCLVGFVGARCEVNVDDCLMRPCANGATCLDGINRFSCLCPEGFAGRFCTINLDDCASRPCQRGARCRDRVHDFDCLCPSGYGGKTCELVLPVPDPPTTVDTPLGPTSAVVVPATGPAPHSAGAGLLRISVKEVVRRQEAGLGEPS

What was measured:
Human Numb full-length = target: T1, Human Numb full-length; experiment: SPR
[1] = target: Human Mdm2 (residues 119-438) (human, UniProt Q00987-11 119-438); experiment: SPR
Human Mdm2 (residues 119-438), sequence (Q00987 113-432): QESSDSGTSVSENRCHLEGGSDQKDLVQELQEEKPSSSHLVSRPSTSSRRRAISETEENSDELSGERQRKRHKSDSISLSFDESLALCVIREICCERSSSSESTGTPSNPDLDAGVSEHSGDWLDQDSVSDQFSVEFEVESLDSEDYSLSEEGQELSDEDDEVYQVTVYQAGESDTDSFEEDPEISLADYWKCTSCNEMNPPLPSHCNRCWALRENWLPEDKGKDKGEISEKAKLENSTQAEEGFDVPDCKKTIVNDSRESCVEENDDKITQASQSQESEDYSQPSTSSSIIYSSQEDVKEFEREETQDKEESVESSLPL

Binder	Kd (Human Numb full-length)	Kd [1]
B1	~14.3 nM	
B2	~2.4 nM	~3.5 nM
